The record followed here is publication PMC8420576 (2021).

Bounds are passed on as bounds.

What all share (test): BLI
(In general: Biolayer interferometry detects binding as a change in optical thickness at a sensor tip.)

The target in assay [1] is T1, SARS-CoV-2 RBD wt (GenScript Z03479) (SARS-CoV-2, UniProt P0DTC2 319-541).
Assay [2] has as its target T1, SARS-CoV-2 RBD wt (GenScript Z03479). The source holds these as a separate data set.
In assay [3] the target is T2, SARS-CoV-2 Spike RBD (residues 334–527), C-terminal Avi-His6 tag, biotinylated (SARS-CoV-2, UniProt P0DTC2 334-527, biotin on the Avi-tag).
For assay [4], the target named is T2, SARS-CoV-2 Spike RBD (residues …). The source holds these as a separate data set.

B1: VHH antibody Re5D06, labeled with two PEG11-biotins (VHH)
VHH: QVQLVESGGGLVQPGGSLRLSCAASGITLDYYAIGWFRQAPGKEREGVSRIRSSDGSTNYADSVKGRFTMSRDNAKNTVYLQMNSLKPEDTAVYYCAYGPLTKYGSSWYWPYEYDYWGQGTQVTVSS
A word on the Kd: it is the free concentration of one partner at which half of the binding sites on the other are occupied at equilibrium, for simple one-to-one binding. A lower Kd goes with a tighter complex. What is called koff is the first-order rate constant of dissociation. As for B1, the Kd in assay [1] was less than 0.01 nM. The dissociation rate constant (koff) in assay [2] is 1.6e-06 s⁻¹.

B2: VHH antibody Re9F06 (VHH)
VHH: QVQLVESGGGLVQAGGSLRLSCAASGRTFSNDALGWFRQAPRKEREFVAAINWNSGTYYADSVKGRFTISRDNAKNTVYLQMNSLKPEDTAVYSCAAASDYGLPREDFLYDYWGQGTQVTVSS
B2 gave a dissociation rate constant (koff) in assay [3] of 0.00045 s⁻¹. This molecule also returned a Kd in assay [4] of 270 nM.
